According to patent US20210102174A1 (TAIPEI VETERANS GENERAL HOSPITAL, published 2021):

B1: Nanog (endogenous, mouse embryonic stem cells) (other, UniProt Q80Z64 1-305, looked up)
chain: MSVGLPGPHSLPSSEEASNSGNASSMPAVFHPENYSCLQGSATEMLCTEAASPRPSSEDLPLQGSPDSSTSPKQKLSSPEADKGPEEEENKVLARKQKMRTVFSQAQLCALKDRFQKQKYLSLQQMQELSSILNLSYKQVKTWFQNQRMKCKRWQKNQWLKTSNGLIQKGSAPVEYPSIHCSYPQGYLVNASGSLSMWGSQTWTNPTWSSQTWTNPTWNNQTWTNPTWSSQAWTAQSWNGQPWNAAPLHNFGEDFLQPYVQLQQNFSASDLEVNLEATRESHAHFSTPQALELFLNYSVTPPGEI

Assays:
[1] = target: T1, Ash2l (endogenous, in nuclear extracts of mouse embryonic stem cells) (mouse, UniProt Q91X20 1-623, limits assumed); assay: co-IP from gel filtration fraction 1 of ESC nuclear extract; also fraction 3 after Wdr5 knockdown (Ash2l still interacted with OSN)
T1 construct: Endogenous protein in gel filtration fractions of ESC nuclear extracts or on ESC chromatin
Experimental: (§1) For samples from gel filtration, we used Centricon (Millipore) to concentrate and desalt the fraction of elute. Cleared sample solution was obtained by centrifugation at 12 000 rpm for 30 min at 4° C., and 0.5-1.5 mg of the sample was used for immunoprecipitations. For identify interacting complex of Ash2l protein, sample was added into primary antibody for 2 h at […] followed by 2 h of further incubation with protein A/G-Sepharose beads. After washing three times with the lysis buffer, immunoprecipitated proteins were eluted from the beads by boiling for 5 min in SDS-PAGE sample buffer and analyzed by immunoblotting.
Nuclear extraction was performed according to the manual instruction. Biochemical fractionation of ESC extracts into seven fractions was performed as described previously (Ang et al., 2011). Briefly, ESCs were lysed with lysis buffer and applied onto […] column (HiPrep 16/60 Sephycryl). […]
To further understand the role of Ash2l in stemness regulation, we used gel filtration analysis (FIG. 2A) followed by Western blot to investigate the profiles of molecular complexes in the nuclei of ESCs (FIG. 2B). […] Subsequently, we assessed these OSN-enriched (fraction 1), OSN/WRD-enriched (fraction 3), and WRD-enriched fractions (fraction 4) in an immunoprecipitation assay. […]

[2] = target: T2, Flag-tagged full-length Ash2l (Ash2l-Full length: 1-623) (UniProt Q91X20 1-623); assay: co-IP of Flag-tagged Ash2l constructs from nuclear extracts, Western blot
T2 construct: range 1-623; Expressed in cells for co-IP, ChIP and reporter assays, or purified from E. coli BL21 for in vitro pull-downs; also called Flag-Ash2l^WT; Flag-Ash2l-F; not shown: 3xFlag tag of the p3xFlag plasmid
Experimental: as §1
(§2) To identify the domain(s) of Ash2l responsible for this protein interaction, we constructed expression plasmids for Flag-tagged truncated Ash2l (Ash2l-N-terminus: 1-172, the PHD domain; and Ash2l-C-terminus: 387-623, the SPRY domain) and full-length Ash2l (Ash2l-full length: 1-623; FIG. 2D) for various experiments. First, we overexpressed truncated and full-length Ash2l proteins in HEK293T cells, and subjected the nuclear extracts to immunoprecipitation (FIG. 2E). Rbbp5 associated with full-length Ash2l and Ash2l-C, which is consistent with previous findings (26). Remarkably, Oct4, Sox2, and Nanog associated with full-length Ash2l and Ash2l-N terminus, but not Ash2l-C terminus (FIG. 2E). To further assess the direct protein-protein interaction, Ash2l-N, Ash2l-C, and full-length Ash2l recombinant proteins were purified from bacteria (FIG. 2G) and independently incubated with various recombinant proteins, including Oct4, Sox2 and Nanog, and the p300 (Taz domain) protein. As shown in the in vitro pull-down assays with further analysis using Western blot or Coomassie staining (FIG. 2F and 2G), Ash2l directly interacted with the master stemness factors, Oct4, Sox2, and Nanog through its N terminus (1-172) (FIG. 2F and 2G). We then used the ZDOCK software to simulate the molecular docking between Ash2l and Oct4 and further predicted that several residues at the N terminus of Ash2l, including K117, W118, E180, K190, N217, and K220, may be crucial for the recognition and interaction with Oct4 (FIG. 2H). To determine which residue(s) of Ash2l was important for its interaction with Oct4, we used immunoprecipitation to assess the binding abilities of different Flag-tagged Ash2l mutants (K117A, W118A, E180A, K190A, N217A, and K220A) to Myc-tagged Oct4.

[3] = target: Sox2 (endogenous, mouse embryonic stem cells) (mouse, UniProt P48432 1-319); assay: as above
Sequence of Sox2 (endogenous, mouse embryonic stem cells) (P48432 whole entry): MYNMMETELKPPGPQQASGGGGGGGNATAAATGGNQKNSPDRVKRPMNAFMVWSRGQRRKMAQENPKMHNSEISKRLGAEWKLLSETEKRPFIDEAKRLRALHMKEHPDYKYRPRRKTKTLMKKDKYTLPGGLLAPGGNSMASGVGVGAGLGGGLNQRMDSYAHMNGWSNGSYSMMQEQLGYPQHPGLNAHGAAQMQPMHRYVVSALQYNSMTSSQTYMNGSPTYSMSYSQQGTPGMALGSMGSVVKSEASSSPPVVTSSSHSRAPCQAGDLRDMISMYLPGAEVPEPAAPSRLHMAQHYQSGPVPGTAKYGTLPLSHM
Experimental: as §1, §2

[4] = target: B1; assay: as above
Experimental: as §1, §2

[5] = target: Oct4 (endogenous, mouse embryonic stem cells) (mouse, UniProt P20263 1-352); assay: as above
Sequence of Oct4 (endogenous, mouse embryonic stem cells) (P20263 whole entry): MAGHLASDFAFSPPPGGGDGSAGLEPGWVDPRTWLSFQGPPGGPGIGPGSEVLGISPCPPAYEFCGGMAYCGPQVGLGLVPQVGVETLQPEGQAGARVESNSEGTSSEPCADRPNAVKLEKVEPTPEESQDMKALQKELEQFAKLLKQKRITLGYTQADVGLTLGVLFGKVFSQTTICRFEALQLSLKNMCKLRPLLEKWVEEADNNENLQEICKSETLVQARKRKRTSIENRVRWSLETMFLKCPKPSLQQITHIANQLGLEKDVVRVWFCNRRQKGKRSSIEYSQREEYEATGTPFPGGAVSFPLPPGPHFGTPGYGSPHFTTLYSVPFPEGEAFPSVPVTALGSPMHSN
Experimental: as §1, §2

Row | Binder | binding result [1] | binding result [2] | binding result [3] | binding result [4] | binding result [5]
1 | B1 | binds | binds | – | – | –
2 | Flag-tagged Ash2l-N terminus (1-172, the PHD domain) (other, UniProt Q91X20 1-172, looked up, range 1-172; also called Flag-Ash2l-N; not shown: 3xFlag tag of the p3xFlag plasmid) MAAAGAGPGPGVSAGPGPGAAASATTAEDRETEPVAAGAGEGPSAAPGAEPSSGEAESGDANLVDVSGLETESSNGKDTLEGTGDTSEVMDTQAGSVDEENGRQLGEVELQCGICTKWFTADTFGIDTSSCLPFMTNYSFHCNVCHHSGNTYFLRKQANLKEMCLSALANLT | – | – | binds | binds | binds
